Reference: paper PMC3936261
Like-named read-outs stand apart in the source and are kept apart here.

Assays:
Assay in all cases: other fluorescence titration
[1] = target: Prdx1 protein labeled with Alexa Fluor 546 (UniProt Q06830)
[2] = target: Prdx1 protein labeled with Alexa Fluor 546 (UniProt Q06830); remark: listed apart in the source
[3] = target: Prdx1 protein labeled with Alexa Fluor 546 (UniProt Q06830); remark: listed apart in the source

Prdx1 protein labeled with Alexa Fluor 546, sequence (Q06830 whole entry): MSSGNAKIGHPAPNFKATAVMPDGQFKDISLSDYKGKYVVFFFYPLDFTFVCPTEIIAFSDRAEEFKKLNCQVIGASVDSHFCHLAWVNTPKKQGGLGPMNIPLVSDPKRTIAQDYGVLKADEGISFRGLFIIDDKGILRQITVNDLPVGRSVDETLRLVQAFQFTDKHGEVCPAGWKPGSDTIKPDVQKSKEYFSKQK

Kd [1]: 0.261 µM
Kd [2]: 0.215 µM
Kd [3]: 0.21 µM
Substance: MKP-1 protein labeled with QSY 35 (from UniProt P28562 1-367) (enzyme)
